The target in the experiment is T1, OTULIN (OTU deubiquitinase with linear linkage specificity, FAM105B), His-tagged, biotin-labelled (human, UniProt Q96BN8 1-352, biotin (label; sites not stated)).
T1 construct: OTULIN (FAM105B), cDNA in pET28a; also called HIS-OTULIN; source: E. coli BL21 (DE3), purified (His-tag Purification Resin), labelled with biotin; not shown: His6, N-terminal, kept
Put plainly: peptide or protein array; HuProt human proteome microarray; 5 ug/5 ml biotin-labelled LUBAC or OTULIN in solution, 1 h at room temperature; Cy5-streptavidin, scanned at 635 nm; BSA as negative control; hits: Z-score >= 3 and I_(Mean_Ratio) >= 1.4. Conditions: both partners purified.

B1: SRA1 (natural protein, human, UniProt Q9HD15 1-224, looked up)
chain: MAELYVKPGNKERGWNDPPQFSYGLQTQAGGPRRSLLTKRVAAPQDGSPRVPASETSPGPPPMGPPPPSSKAPRSPPVGSGPASGVEPTSFPVESEAVMEDVLRPLEQALEDCRGHTRKQVCDDISRRLALLQEQWAGGKLSIPVKKRMALLVQELSSHRWDAADDIHRSLMVDHVTEVSQWMVGVKRLIAEKRSLFSEEAANEEKSAATAEKNHTIPGFQQAS
notes: SRA1; protein on the human proteome microarray; source: spotted on the HuProt human proteome microarray
For B1, the binding result was “binds”.

B2: SPRR4 (natural protein, human, UniProt Q96PI1 1-79, looked up)
chain: MSSQQQQRQQQQCPPQRAQQQQVKQPCQPPPVKCQETCAPKTKDPCAPQVKKQCPPKGTIIPAQQKCPSAQQASKSKQK
notes: SPRR4; protein on the human proteome microarray; source: spotted on the HuProt human proteome microarray
As to B2, the binding result was “binds”.

B3: AKR1C3 (natural protein, human, UniProt P42330 1-323, looked up)
chain: MDSKHQCVKLNDGHFMPVLGFGTYAPPEVPRSKALEVTKLAIEAGFRHIDSAHLYNNEEQVGLAIRSKIADGSVKREDIFYTSKLWSTFHRPELVRPALENSLKKAQLDYVDLYLIHSPMSLKPGEELSPTDENGKVIFDIVDLCTTWEAMEKCKDAGLAKSIGVSNFNRRQLEMILNKPGLKYKPVCNQVECHPYFNRSKLLDFCKSKDIVLVAYSALGSQRDKRWVDPNSPVLLEDPVLCALAKKHKRTPALIALRYQLQRGVVVLAKSYNEQRIRQNVQVFEFQLTAEDMKAIDGLDRNLHYFNSDSFASHPNYPYSDEY
notes: AKR1C3; protein on the human proteome microarray; source: spotted on the HuProt human proteome microarray
For the molecule B3, the binding result is reported as “binds”.

B4: SULT1B1 (natural protein)
chain: not shown
notes: SULT1B1; protein on the human proteome microarray; source: spotted on the HuProt human proteome microarray
Consider B4, for which the binding result is “binds”.

B5: SRXN1 (natural protein)
chain: not shown
notes: SRXN1; protein on the human proteome microarray; source: spotted on the HuProt human proteome microarray
B5: the binding result is listed as “binds”.

B6: SULT1C2 (natural protein, human, UniProt O00338 1-296, looked up)
chain: MALTSDLGKQIKLKEVEGTLLQPATVDNWSQIQSFEAKPDDLLICTYPKAGTTWIQEIVDMIEQNGDVEKCQRAIIQHRHPFIEWARPPQPSGVEKAKAMPSPRILKTHLSTQLLPPSFWENNCKFLYVARNAKDCMVSYYHFQRMNHMLPDPGTWEEYFETFINGKVVWGSWFDHVKGWWEMKDRHQILFLFYEDIKRDPKHEIRKVMQFMGKKVDETVLDKIVQETSFEKMKENPMTNRSTVSKSILDQSISSFMRKGTVGDWKNHFTVAQNERFDEIYRRKMEGTSINFCMEL
notes: SULT1C2; protein on the human proteome microarray; source: spotted on the HuProt human proteome microarray
With B6, the binding result is on record as “binds”.

B7: TAF9B (natural protein, human, UniProt Q9HBM6 1-251, looked up)
chain: MESGKMAPPKNAPRDALVMAQILKDMGITEYEPRVINQMLEFAFRYVTTILDDAKIYSSHAKKPNVDADDVRLAIQCRADQSFTSPPPRDFLLDIARQKNQTPLPLIKPYAGPRLPPDRYCLTAPNYRLKSLIKKGPNQGRLVPRLSVGAVSSKPTTPTIATPQTVSVPNKVATPMSVTSQRFTVQIPPSQSTPVKPVPATTAVQNVLINPSMIGPKNILITTNMVSSQNTANEANPLKRKHEDDDDNDIM
notes: TAF9B; protein on the human proteome microarray; source: spotted on the HuProt human proteome microarray
Turning to B7, the binding result is recorded as “binds”.

B8: SLC25A16 (natural protein, human, UniProt P16260 1-332, looked up)
chain: MAAATAAAALAAADPPPAMPQAAGAGGPTTRRDFYWLRSFLAGGIAGCCAKTTVAPLDRVKVLLQAHNHHYKHLGVFSALRAVPQKEGFLGLYKGNGAMMIRIFPYGAIQFMAFEHYKTLITTKLGISGHVHRLMAGSMAGMTAVICTYPLDMVRVRLAFQVKGEHSYTGIIHAFKTIYAKEGGFFGFYRGLMPTILGMAPYAGVSFFTFGTLKSVGLSHAPTLLGRPSSDNPNVLVLKTHVNLLCGGVAGAIAQTISYPFDVTRRRMQLGTVLPEFEKCLTMRDTMKYVYGHHGIRKGLYRGLSLNYIRCIPSQAVAFTTYELMKQFFHLN
notes: SLC25A16; protein on the human proteome microarray; source: spotted on the HuProt human proteome microarray
Take B8: the binding result is given as “binds”.

B9: AKR1D1 (natural protein, human, UniProt P51857 1-326, looked up)
chain: MDLSAASHRIPLSDGNSIPIIGLGTYSEPKSTPKGACATSVKVAIDTGYRHIDGAYIYQNEHEVGEAIREKIAEGKVRREDIFYCGKLWATNHVPEMVRPTLERTLRVLQLDYVDLYIIEVPMAFKPGDEIYPRDENGKWLYHKSNLCATWEAMEACKDAGLVKSLGVSNFNRRQLELILNKPGLKHKPVSNQVECHPYFTQPKLLKFCQQHDIVITAYSPLGTSRNPIWVNVSSPPLLKDALLNSLGKRYNKTAAQIVLRFNIQRGVVVIPKSFNLERIKENFQIFDFSLTEEEMKDIEALNKNVRFVELLMWRDHPEYPFHDEY
notes: AKR1D1; protein on the human proteome microarray; source: spotted on the HuProt human proteome microarray
Regarding B9, the binding result is “binds”.
